Test results: the RNAGym collection of RNA variant scans (doi:10.1073/pnas.2313332121)

B1: TPR t1 (parent)
chain: GACCAAUCUGCCCUCAGAGCUCGAGAACAUCUUCGGAUGCAGAGGAGGCAGGCUUCGGUGGCGCGAUAGCGCCAACGUCCUCAACCUCCAAUGCAUCCCACCACAUGAUGAUGCCUGAAGAGCCUUGGUUUUUUG

Variants of: B1
Assay: polymerase ribozyme fitness, log enrichment relative to wild type (log ratio); higher = more active; in vitro selection for triplet polymerase activity
Method in brief: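 To select mutant libraries of each subunit of a heterodimeric triplet polymerase ribozyme, built by PCR and transcribed, each was annealed with a biotinylated primer, partner subunit and triplets, then incubated frozen at −7 °C. Extended constructs were gel-excised, captured on streptavidin beads and amplified by RT-PCR, in one round carried out in triplicate. Illumina sequencing of input and output libraries kept genotypes with ≥10 input reads and ≥1 read per output. Fitness is the base-2 logarithm of genotype enrichment relative to wild-type enrichment, from inverse-variance-weighted replicate averages.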

Variant	polymerase ribozyme fitness (log ratio)
G36A G44A C73G C79U U116G	-5.21
G36A G44U C70U A111C	-2.48
G36A G44U C72A C88A U106G G113C	-5.9
G36A G45C C114A	-3.75
G36A G45C G58C C64G G117U	-6.11
G36A G48U C56U U112A G117U G120U G127C U133A	-6.88
G36A G51U G120A	-3.42
G36A G57A G60U U131G	-0.901
G36A G61A A103C A118U	-5.74
G36A G69A C73A G122A	-4.15
G36A G71U U106A	-1.11
G36A G110U A121U	-2.05
G36A U54G	-1.04
G36A U59A	-0.196
G36A U81A U125A	-2.6
G36A U106A G117A	-1.88
G36C A50C G52A	-4.73
G36C A50C G71A A118U G120A	-1.49
G36C A50U	-1.67
G36C A66G C72U	-3.78
G36C C40A	-1.42
G36C C40G C72U C73A	-5.31
G36C C49G C70U	-2.37
G36C C53A C115U U116G	-4.36

Variant	polymerase ribozyme fitness (log ratio)
G36C C53G C56A A95U	-2.45
G36C C64U C85U	-1.78
G36C C70U	-1.72
G36C C72G	-2.37
G36C C86A	-1.45
G36C C86U	-1.65
G36C C114A G120A	-2.49
G36C G47A G110A G127U	-2.57
G36C G51C C70U U87A C94U C123U	-5.76
G36C G60A	-0.627
G36C G61C	-2.42
G36C G61U C70G C80U U81A C88U C104A C114G	-6.29
G36C G61U C114A	-2.77
G36C G63U C98U	-3.08
G36C U54G C73A	-2.09
G36C U54G G61U	-5.87
G36C U55G	-1.03
G36C U78C A95C	-2.98
G36C U87G U116A	-5.07
G36U A46C A50U A84U	-5.6
G36U A46G	-0.974
G36U A50C A84U	-1.94
G36U A90G C97G U106C	-1.51
G36U A103G	-4.73

Variant	polymerase ribozyme fitness (log ratio)
G36U A111G U133G	-2.38
G36U C40A U81A G120C G122A	-4.24
G36U C40G U78G C97A U112G	-1.61
G36U C40U A121U G122C	-0.484
G36U C40U G51U A68G C72U A111U A119C G120A	-8.09
G36U C49U C64U G113A C115U G128U	-6.05
G36U C56U C104A	-2.85
G36U C64U A119G	0.0711
G36U C72G C102U	-3.82
G36U C85A C104A	-3.96
G36U C86A	-1.1
G36U C97A	-0.428
G36U C99U C124A	-3.03
G36U C101A U130C	-1.6
G36U C104U	-1.41
G36U C124G	0.74
G36U C124U	0.315
G36U G39A C53A C94G C124G G127C	-2.11
G36U G42U	-3.46
G36U G44A C72A C94G C123G	-4.22
G36U G44A G63A	-3.52
G36U G48A	-1.52
G36U G48U	-2.23
G36U G48U U78A	-2.21

Variant	polymerase ribozyme fitness (log ratio)
G36U G58C G71C A91U G120U	-4.22
G36U G60A C94U	-1.8
G36U G60A G113A	-1.62
G36U G61A G117U	-5.19
G36U G71A G120C C123G	-1
G36U G71C	-1.92
G36U G71U G117A	-4.25
G36U G120C	0.124
G36U G120U	0.153
G36U U38C C72A C115G A118U C124G U131C	-5.85
G36U U54G G69A	-5.06
G36U U59A A90G C97G U106C	-1.98
G36U U78C C101U C123A	-1.09
G36U U78G C97A	-0.315
G36U U78G C115G	-4.29
G36U U112A	0.888
G36U U132A	-0.893
A37C A41G C53A C88U	-0.41
A37C A46G G61U C64U	-5.42
A37C A68G	-2.51
A37C A75U C89U C102A	-2.92
A37C A95G	-0.966
A37C A118U	0.469
A37C C40U U55C A91C	-3.28

Variant	polymerase ribozyme fitness (log ratio)
A37C C49A A66C C104U U125G	-1.63
A37C C49A G69U G77C C85A	-3.32
A37C C56A U78C U130C	-0.27
A37C C56G	-1
A37C C56G U125A	-1.58
A37C C64U U92G	-2.59
A37C C72U G120U A121C	0.205
A37C C85A G113C	-3.33
A37C G39A C62U	-3.21
A37C G39C	-4.38
A37C G42U C88A A111G	-4.05
A37C G42U G48C A50U C70U G120U C124U	-3.73
A37C G44A A50U G120U	-3.3
A37C G45A A83C A100U G113C	-4.29
A37C G48C U54C G63A A74U G113A	-5.41
A37C G48C U54C G113A	-2.76
A37C G48U A108U G120C	-5.53
A37C G60U C101G	-1.57
A37C G61A C73U	-0.816
A37C G61U U109A	-5.9
A37C G63C G77C C88U A105U	-5.64
A37C U54A G93C	-1.23
A37C U54G G57A	-1.35
A37C U55G C76U A105U	-2.68

Variant	polymerase ribozyme fitness (log ratio)
A37G A84C	-0.444
A37G A121G	2.3
A37G C40U	-1.48
A37G C40U G51U C82G	-3.82
A37G C53G G69A G110U U132C	-6.38
A37G C56U	-0.0501
A37G C64A	-6.74
A37G C64U C73G U109A	-6.41
A37G C70U	-0.719
A37G C70U C79A	-3.05
A37G C72U C88G C104U G113A	-4.89
A37G C76G C80G	-6.38
A37G C98U	-1.79
A37G C104U G113A U130G	-1.23
A37G C114U U129C	-3.17
A37G C115U	-0.85
A37G G39C	-2.69
A37G G42C	-1.89
A37G G44C G48U C73A	-2.25
A37G G47C C64U U87A G120C C124G	-3.3
A37G G57A U106C G120C U129A	-3.11
A37G G60U U112C C123G	-0.195
A37G G113A	-1.4
A37G G113C	-2.15

Variant	polymerase ribozyme fitness (log ratio)
A37G U55C C56A C88A	-4.55
A37G U78A C82G A119U	-0.542
A37G U81G A84C	-5.14
A37G U92A	-2.8
A37G U92C U106C G110A	-3.53
A37G U96A	-3.44
A37U A41C U55C U87G C88U	-2.92
A37U A43G G60A	-2.78
A37U A46U U131G	-2.61
A37U A74C A83U G117U	-3.26
A37U A74C C102A C104U	-2.41
A37U A83U U96A C124U U131A	1.19
A37U A83U U106A	0.192
A37U A91U U130A	-2.83
A37U C53A G63A C94G G120C U131A	-3.11
A37U C53G U116A	-3.56
A37U C53U G58C A66U C76G U106C	-2.44
A37U C56G	-1.11
A37U C56G U87G	-1.26
A37U C70A	-1.11
A37U C70G C97U G117U	-5.65
A37U C72A	-0.493
A37U C72G U78C A119U	-1.26
